B1: M825 anti-TEM8 fragment antigen-binding (Fab) (Fab, V domains shown)
VH: QVQLVQSGAEVKKPGTSVKVSCKVPGYTFSSYAISWVRQAPGQGLEWMGGIIPIFGTTNYAQKFQGRVTITGEESTSTVYMELSSLRSEDTAVYYCARDTDYMFDYWGQGTLVTVSS
VL: SSELTQDPVVSVALGETVSITCQGDNLRDFYASWYQQKPGQAPLLVMYGKNRRPSGIPDRFSGSTSGNTLSLTITGAQAEDEADYYCSSRDNSKHVVFGGGTKVTVL

Biological target: hTEM8-AP (human) (UniProt Q9H6X2)
Assay: Biocore (SPR) affinity measurement of anti-TEM8 Fab

Chain of hTEM8-AP (human) (Q9H6X2 33-321): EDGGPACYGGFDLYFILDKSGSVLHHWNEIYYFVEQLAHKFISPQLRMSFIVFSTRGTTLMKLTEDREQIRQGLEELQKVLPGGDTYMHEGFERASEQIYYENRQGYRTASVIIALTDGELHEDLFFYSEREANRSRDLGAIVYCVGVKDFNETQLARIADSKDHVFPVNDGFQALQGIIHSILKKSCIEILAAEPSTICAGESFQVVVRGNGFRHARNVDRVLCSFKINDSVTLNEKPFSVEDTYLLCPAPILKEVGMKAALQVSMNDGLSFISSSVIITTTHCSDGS

Row | Molecule | Kd | koff | kon
1 | M830 anti-TEM8 fragment antigen-binding (Fab) | 1570 pM | 0.000953 s⁻¹ | 607000 M⁻¹ s⁻¹
2 | B1 | 59.1 pM | 0.00018 s⁻¹ | 3.05e+06 M⁻¹ s⁻¹
